# Results reported in article PMC3737524, “The role of the C-terminal helix of U1A protein in the interaction with U1hpII RNA”.
# How the values were obtained:
# Conditions in all cases: protein: recombinant; tags: N-terminal His6; label: 5' biotin; hairpin
# U1A Asp92Ala = U1A Asp92Ala (UniProt P09012 1-101, D92A); test: SPR; ka 3.3e7 M-1s-1; kd 1.1e-3 s-1; Biacore 2000 SPR; running buffer with 125 ug/ml yeast tRNA and 62.5 ug/ml acetylated BSA; buffer, salt, pH and temperature as previously described (not given in material)
# Chain of U1A Asp92Ala (P09012 1-101 D92A): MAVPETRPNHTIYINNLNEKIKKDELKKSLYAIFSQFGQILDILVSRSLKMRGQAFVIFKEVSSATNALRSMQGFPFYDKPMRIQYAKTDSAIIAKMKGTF
# U1A90 = U1A90 (UniProt P09012 1-90); test: SPR; ka 2.3e8 M-1s-1; kd 1.0 s-1; Biacore 2000 SPR; running buffer with 125 ug/ml yeast tRNA and 62.5 ug/ml acetylated BSA; buffer, salt, pH and temperature as previously described (not given in material)
# Chain of U1A90 (P09012 1-90): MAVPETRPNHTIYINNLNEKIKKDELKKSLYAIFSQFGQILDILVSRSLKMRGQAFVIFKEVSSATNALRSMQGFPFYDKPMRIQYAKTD
# U1A Thr11Ala = U1A Thr11Ala (UniProt P09012 1-101, T11A); test: SPR; ka 7.1e7 M-1s-1; kd 1.5e-2 s-1; Biacore 2000 SPR; running buffer with 125 ug/ml yeast tRNA and 62.5 ug/ml acetylated BSA; buffer, salt, pH and temperature as previously described (not given in material)
# Chain of U1A Thr11Ala (P09012 1-101 T11A): as the sequence (P09012 1-101 D92A) above, with T11A, A92D counted along it
# U1A Asp92Glu = U1A Asp92Glu (UniProt P09012 1-101, D92E); test: SPR; ka 4e7 M-1s-1; kd 9e-4 s-1; Biacore 2000 SPR; running buffer with 125 ug/ml yeast tRNA and 62.5 ug/ml acetylated BSA; buffer, salt, pH and temperature as previously described (not given in material)
# Chain of U1A Asp92Glu (P09012 1-101 D92E): as the sequence (P09012 1-101 D92A) above, with A92E counted along it
# U1A Ile94Pro = U1A Ile94Pro (UniProt P09012 1-101, I94P); test: SPR; ka 1.2e8 M-1s-1; kd 6e-2 s-1; Biacore 2000 SPR; running buffer with 125 ug/ml yeast tRNA and 62.5 ug/ml acetylated BSA; buffer, salt, pH and temperature as previously described (not given in material)
# Chain of U1A Ile94Pro (P09012 1-101 I94P): as the sequence (P09012 1-101 D92A) above, with A92D, I94P counted along it
# U1A Asp92Phe = U1A Asp92Phe (UniProt P09012 1-101, D92F); test: SPR; ka 6e7 M-1s-1; kd 1.0e-3 s-1; Biacore 2000 SPR; running buffer with 125 ug/ml yeast tRNA and 62.5 ug/ml acetylated BSA; buffer, salt, pH and temperature as previously described (not given in material)
# Chain of U1A Asp92Phe (P09012 1-101 D92F): as the sequence (P09012 1-101 D92A) above, with A92F counted along it
# U1A95 = U1A95 (UniProt P09012 1-95); test: SPR; ka 2.3e7 M-1s-1; kd 1.8e-2 s-1; Biacore 2000 SPR; running buffer with 125 ug/ml yeast tRNA and 62.5 ug/ml acetylated BSA; buffer, salt, pH and temperature as previously described (not given in material)
# Chain of U1A95 (P09012 1-95): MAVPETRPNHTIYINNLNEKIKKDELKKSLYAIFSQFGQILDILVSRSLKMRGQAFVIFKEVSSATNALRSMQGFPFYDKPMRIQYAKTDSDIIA
binder,measurement,setting,value
AGCUUAUCCAUUGCACUCCGGAUGAGCU (structured_RNA) [U1hpII],Kd,U1A Asp92Ala,0.041 nM
same,Kd,U1A90,4.5 nM
same,Kd,U1A Thr11Ala,0.21 nM
same,Kd,U1A Asp92Glu,0.02 nM
same,Kd,U1A Ile94Pro,0.5 nM
same,Kd,U1A Asp92Phe,0.02 nM
same,Kd,U1A95,0.82 nM
